# Test results taken from US12129294B2, “Methods of treatment of diseases in which IL-13 activity is detrimental using anti-IL-13 antibodies” (AbbVie Inc., priority 2016, dated 2024).
# “Also recorded” adds a separate entry of the source.
# B1: RPC4046: recombinant humanized, high-affinity, selective anti-IL-13 monoclonal antibody; heavy chain variable region SEQ ID NO: 2, light chain variable region SEQ ID NO: 3 (antibody, V domains shown)
# VH: EVTLRESGPGLVKPTQTLTLTCTLYGFSLSTSDMGVDWIRQPPGKGLEWLAHIWWDDVKRYNPALKSRLTISKDTSKNQVVLKLTSVDPVDTATYYCARTVSSGYIYYAMDYWGQGTLVTVSS
# VL: DIQMTQSPSSLSASVGDRVTISCRASQDIRNYLNWYQQKPGKAPKLLIFYTSKLHSGVPSRFSGSGSGTDYTLTISSLQPEDIATYYCQQGNTLPLTFGGGTKVEIK
# Key:
# [1] = target: IL-13 sequence variant, R110Q (Homo sapiens, UniProt P35225); assay: Binding of the antibody to IL-13 variant
# Chain of IL-13 sequence variant, R110Q (P35225 35-146, stated change not applied): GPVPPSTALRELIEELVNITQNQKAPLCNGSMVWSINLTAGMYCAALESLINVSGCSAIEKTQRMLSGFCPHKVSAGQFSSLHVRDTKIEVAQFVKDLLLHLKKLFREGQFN
# [2] = tested on: subjects with symptomatic eosinophilic esophagitis (EoE); assay: Phase 2 study in EoE patients: clinician's global assessment of disease severity; assay type: in vivo, human; settings: for clinician's global assessment of disease severity, Mean change / clinician's global assessment of disease severity, LSMD versus placebo: Change to Week 16; for clinician's global assessment of disease severity, LSMD versus placebo: ANCOVA
# Description: (§1) Safety was monitored throughout the study. […] The study was powered for the primary endpoint.
# [3] = tested on: subjects with symptomatic eosinophilic esophagitis (EoE); assay: Phase 2 study in EoE patients: peak esophageal eosinophil count; assay type: in vivo, human; settings: for peak esophageal eosinophil count, Mean change / peak esophageal eosinophil count, LSMD versus placebo: Change to Week 16; for peak esophageal eosinophil count, LSMD versus placebo: ANCOVA
# Description: North America and Switzerland. […] Safety was monitored throughout the study. […] The study was powered for the primary endpoint. […] To maximize consistency, biopsies were obtained from proximal and distal esophagus (i.e., 4 biopsy fragments from each level) at screening. Additional biopsies from mid-esophagus was encouraged and effort was made to obtain subsequent biopsies from the same levels. The biopsies were blinded and read by single central pathologist. To be eligible for trial, subjects were evaluated for peak eosinophil count of ≥15/HPF, from 2 of 3 (proximal, mid-, and/or distal) levels of the esophagus at the screening endoscopy. Next, the effectiveness of RPC4046 (over placebo) in lowering peak esophageal eosinophil count in EoE subjects at week 16 was analyzed.
# human type IL-13 = human type IL-13 (Homo sapiens, UniProt P35225, Q144R); assay: Binding of the antibody to IL-13
# Chain of human type IL-13 (P35225 15-146 Q144R limits assumed): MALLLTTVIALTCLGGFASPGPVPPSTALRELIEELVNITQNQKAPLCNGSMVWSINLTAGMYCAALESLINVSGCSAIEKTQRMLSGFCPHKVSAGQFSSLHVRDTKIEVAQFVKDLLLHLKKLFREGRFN
# other cytokines = assay: Binding of the antibody to other cytokines
# [4] = tested on: subjects with symptomatic eosinophilic esophagitis (EoE); assay: Phase 2 study in EoE patients: EoE endoscopic reference score (EREF); assay type: in vivo, human; settings: treatment with RPC4046
# Experimental: as §1
# In further analysis, the mean eosinophilic esophagitis endoscopic reference score (EREF) in subjects at week 16 was analyzed for placebo and the two treatment arms. The EREF score is an additional secondary endpoint that is evaluated based on the presence of inflammatory markers (e.g., being positive for edema, exudates and/or furrows) and/or remodeling markers (e.g., being positive for fixed rings and/or strictures).
# The results of the EREF study was further inspected by analyzing composite EREF score for inflammatory markers or remodeling markers.
# [5] = tested on: subjects with symptomatic eosinophilic esophagitis (EoE); assay: Phase 2 study in EoE patients: safety, treatment-emergent adverse events (TEAE)
# Experimental: A double-blind, placebo-controlled, dose-finding study was conducted at 40 canters in North America and Switzerland. Patients with EoE (n=100, aged 18-65) were randomized to 180 mg (low dose; LD) or 360 mg (high dose; HD) RPC4046 or PBO (1:1:1) in a Day 1 intravenous loading dose, followed by weekly subcutaneous doses for 15 weeks. […] Safety was monitored throughout the study.
# Additionally, various safety and tolerability endpoints are also measurable. Safety and tolerability parameters are evaluated by the incidence, severity, and relationship of adverse events (AEs), serious AEs (SAEs), clinical laboratory abnormalities, changes in vital signs, physical examination abnormalities, and the presence of anti-drug antibodies.
# [6] = 180 mg (N = 31), safety population
molecule,measurement,setting,value
B1,"binding to IL-13 sequence variant, R110Q",[1],binds
same,"clinician's global assessment of disease severity, Mean","[2]; 180 mg, Baseline",6.7
same,"clinician's global assessment of disease severity, Median","[2]; 180 mg, Baseline",7.0
same,"clinician's global assessment of disease severity, Mean change",[2]; 180 mg,−3.6
same,"clinician's global assessment of disease severity, LSMD versus placebo",[2]; 180 mg,−1.7
same,"clinician's global assessment of disease severity, Mean","[2]; 180 mg, Week 16",2.9
same,"clinician's global assessment of disease severity, Median","[2]; 180 mg, Week 16",2.0
same,"clinician's global assessment of disease severity, Mean","[2]; 360 mg, Baseline",6.1
same,"clinician's global assessment of disease severity, Median","[2]; 360 mg, Baseline",6.0
same,"clinician's global assessment of disease severity, Mean change",[2]; 360 mg,−2.9
same,"clinician's global assessment of disease severity, LSMD versus placebo",[2]; 360 mg,−1.3
same,"clinician's global assessment of disease severity, Mean","[2]; 360 mg, Week 16",3.2
same,"clinician's global assessment of disease severity, Median","[2]; 360 mg, Week 16",3.0
same,clinician's global assessment of disease severity at week 16,"[2]; both the low and the high dose, week 16",achieved statistical significance
same,"peak esophageal eosinophil count, Mean","[3]; 180 mg, Baseline",131.9 cells/hpf
same,"peak esophageal eosinophil count, Median","[3]; 180 mg, Baseline",113.0 cells/hpf
same,"peak esophageal eosinophil count, Mean change",[3]; 180 mg,−106.6 cells/hpf
same,"peak esophageal eosinophil count, LSMD versus placebo",[3]; 180 mg,−80.6 cells/hpf
same,"peak esophageal eosinophil count, Mean","[3]; 180 mg, Week 16",28.9 cells/hpf
same,"peak esophageal eosinophil count, Median","[3]; 180 mg, Week 16",15.0 cells/hpf
same,"peak esophageal eosinophil count, Mean","[3]; 360 mg, Baseline",139.4 cells/hpf
same,"peak esophageal eosinophil count, Median","[3]; 360 mg, Baseline",132.0 cells/hpf
same,"peak esophageal eosinophil count, Mean change",[3]; 360 mg,−111.3 cells/hpf
same,"peak esophageal eosinophil count, LSMD versus placebo",[3]; 360 mg,−79.8 cells/hpf
same,"peak esophageal eosinophil count, Mean","[3]; 360 mg, Week 16",31.3 cells/hpf
same,"peak esophageal eosinophil count, Median","[3]; 360 mg, Week 16",15.0 cells/hpf
same,lowering of esophageal eosinophil counts over placebo at week 16,[3]; both low (180 mg) and high dose (360 mg),achieved statistical significance
same,binding to human type IL-13,human type IL-13,binds to human type IL-13
same,selectivity for IL-13,human type IL-13,highly selective for IL-13
same,binding to other cytokines,other cytokines,does not bind to other cytokines
same,EREF total score at week 16,[4],net lowering of EREF score
same,Number of subjects experiencing Death related to study drug,[5]; [6],0 n
same,Number of subjects experiencing ≥1 TEAE,[5]; [6],20 n
same,Number of subjects experiencing ≥1 TEAE leading to study drug d/c,[5]; [6],1 n
same,Number of subjects experiencing ≥1 TEAE with fatal outcome,[5]; [6],0 n
same,Number of subjects experiencing ≥1 moderate or severe TEAE,[5]; [6],7 n
same,"Number of subjects experiencing ≥1 possible, probable, or related TEAE",[5]; [6],11 n
same,Number of subjects experiencing ≥1 related TEAE,[5]; [6],3 n
same,Number of subjects experiencing ≥1 related serious TEAE,[5]; [6],0 n
same,Number of subjects experiencing ≥1 serious TEAE,[5]; [6],0 n
same,Number of subjects experiencing ≥1 severe TEAE,[5]; [6],2 n
same,Subjects experiencing ≥1 TEAE,[5]; [6],(64.5) %
same,Subjects experiencing ≥1 TEAE leading to study drug d/c,[5]; [6],(3.2) %
same,Subjects experiencing ≥1 moderate or severe TEAE,[5]; [6],(22.6) %
same,"Subjects experiencing ≥1 possible, probable, or related TEAE",[5]; [6],(35.5) %
same,Subjects experiencing ≥1 related TEAE,[5]; [6],(9.7) %
same,Subjects experiencing ≥1 severe TEAE,[5]; [6],(6.5) %
same,safety and tolerability,"[5]; 180 mg and 360 mg, 16-week treatment",well-tolerated with a favorable safety profile; also recorded: generally safe and well-tolerated
same,Number of subjects experiencing Death related to study drug,"[5]; 360 mg (N = 34), safety population",0 n
